Measurements: patent US20230051304A1 (Regeneron, published 2023)
Substitutions are numbered along the chain they refer to.

B1: Bivalent: IL12(p40-p35)-Fc (Fc fusion)
chain: MWELEKDVYVVEVDWTPDAPGETVNLTCDTPEEDDITWTSDQRHGVIGSGKTLTITVKEFLDAGQYTCHKGGETLSHSHLLLHKKENGIWSTEILKNFKNKTFLKCEAPNYSGRFTCSWLVQRNMDLKFNIKSSSSSPDSRAVTCGMASLSAEKVTLDQRDYEKYSVSCQEDVTCPTAEETLPIELALEARQQNKYENYSTSFFIRDIIKPDPPKNLQMKPLKNSQVEVSWEYPDSWSTPHSYFSLKFFVRIQRKKEKMKETEEGCNQKGAFLVEKTSTEVQCKGGNVCVQAQDRYYNSSCSKWACVPCRVRSGGGGSGGGGSGGGGSRVIPVSGPARCLSQSRNLLKTTDDMVKTAREKLKHYSCTAEDIDHEDITRDQTSTLKTCLPLELHKNESCLATRETSSTTRGSCLPPQKTSLMMTLCLGSIYEDLKMYQTEFQAINAALQNHNHQQIILDKGMLVAIDELMQSLNHNGETLRQKPPVGEADPYRVKMKLCILLHAFSTRVVTINRVMGYLSSAGGGGSGGGGSGGGGSESKYGPPCPPCPAPPVAGPSVFLFPPKPKDTLMISRTPEVTCVVVDVSQEDPEVQFNWYVDGVEVHNAKTKPREEQFNSTYRVVSVLTVLHQDWLNGKEYKCKVSNKGLPSSIEKTISKAKGQPREPQVYTLPPSQEEMTKNQVSLTCLVKGFYPSDIAVEWESNGQPENNYKTTPPVLDSDGSFFLYSRLTVDKSRWQEGNVFSCSVMHEALHNHYTQKSLSLSLGK
B2: Bivalent: IL12*(p40*-p35*)-Fc (Fc fusion)
chain: B1 chain with C175S, C398S
B3: Bivalent: Fc-IL12*(p40*-p35*) (Fc fusion)
chain: ESKYGPPCPPCPAPPVAGPSVFLFPPKPKDTLMISRTPEVTCVVVDVSQEDPEVQFNWYVDGVEVHNAKTKPREEQFNSTYRVVSVLTVLHQDWLNGKEYKCKVSNKGLPSSIEKTISKAKGQPREPQVYTLPPSQEEMTKNQVSLTCLVKGFYPSDIAVEWESNGQPENNYKTTPPVLDSDGSFFLYSRLTVDKSRWQEGNVFSCSVMHEALHNHYTQKSLSLSLGKGGGGSGGGGSGGGGSMWELEKDVYVVEVDWTPDAPGETVNLTCDTPEEDDITWTSDQRHGVIGSGKTLTITVKEFLDAGQYTCHKGGETLSHSHLLLHKKENGIWSTEILKNFKNKTFLKCEAPNYSGRFTCSWLVQRNMDLKFNIKSSSSSPDSRAVTCGMASLSAEKVTLDQRDYEKYSVSCQEDVTSPTAEETLPIELALEARQQNKYENYSTSFFIRDIIKPDPPKNLQMKPLKNSQVEVSWEYPDSWSTPHSYFSLKFFVRIQRKKEKMKETEEGCNQKGAFLVEKTSTEVQCKGGNVCVQAQDRYYNSSCSKWACVPCRVRSGGGGSGGGGSGGGGSRVIPVSGPARCLSQSRNLLKTTDDMVKTAREKLKHYSCTAEDIDHEDITRDQTSTLKTCLPLELHKNESSLATRETSSTTRGSCLPPQKTSLMMTLCLGSIYEDLKMYQTEFQAINAALQNHNHQQIILDKGMLVAIDELMQSLNHNGETLRQKPPVGEADPYRVKMKLCILLHAFSTRVVTINRVMGYLSSA
B4: Monovalent: IL12(p35xp40)-Fc (Fc fusion)
chain 1: RVIPVSGPARCLSQSRNLLKTTDDMVKTAREKLKHYSCTAEDIDHEDITRDQTSTLKTCLPLELHKNESCLATRETSSTTRGSCLPPQKTSLMMTLCLGSIYEDLKMYQTEFQAINAALQNHNHQQIILDKGMLVAIDELMQSLNHNGETLRQKPPVGEADPYRVKMKLCILLHAFSTRVVTINRVMGYLSSAGGGGSGGGGSGGGGSESKYGPPCPPCPAPPVAGPSVFLFPPKPKDTLMISRTPEVTCVVVDVSQEDPEVQFNWYVDGVEVHNAKTKPREEQFNSTYRVVSVLTVLHQDWLNGKEYKCKVSNKGLPSSIEKTISKAKGQPREPQVYTLPPSQEEMTKNQVSLWCLVKGFYPSDIAVEWESNGQPENNYKTTPPVLDSDGSFFLYSRLTVDKSRWQEGNVFSCSVMHEALHNHYTQKSLSLSLGK
chain 2: MWELEKDVYVVEVDWTPDAPGETVNLTCDTPEEDDITWTSDQRHGVIGSGKTLTITVKEFLDAGQYTCHKGGETLSHSHLLLHKKENGIWSTEILKNFKNKTFLKCEAPNYSGRFTCSWLVQRNMDLKFNIKSSSSSPDSRAVTCGMASLSAEKVTLDQRDYEKYSVSCQEDVTCPTAEETLPIELALEARQQNKYENYSTSFFIRDIIKPDPPKNLQMKPLKNSQVEVSWEYPDSWSTPHSYFSLKFFVRIQRKKEKMKETEEGCNQKGAFLVEKTSTEVQCKGGNVCVQAQDRYYNSSCSKWACVPCRVRSGGGGSGGGGSGGGGSESKYGPPCPPCPAPPVAGPSVFLFPPKPKDTLMISRTPEVTCVVVDVSQEDPEVQFNWYVDGVEVHNAKTKPREEQFNSTYRVVSVLTVLHQDWLNGKEYKCKVSNKGLPSSIEKTISKAKGQPREPQVYTLPPSQEEMTKNQVSLSCAVKGFYPSDIAVEWESNGQPENNYKTTPPVLDSDGSFFLVSRLTVDKSRWQEGNVFSCSVMHEALHNRFTQKSLSLSPGK
B5: Fc-IL12(mutein 1) (Fc fusion)
chain: B3 chain with S418C, S641C, Y734A
B6: Fc-IL12(mutein 4) (Fc fusion)
chain: B3 chain with S418C, S641C, Y734E
B7: Fc-IL12(mutein 2) (Fc fusion)
chain: B3 chain with S418C, S641C, Y734V
B8: Fc-IL12(mutein 3) (Fc fusion)
chain: B3 chain with S418C, S641C, Y734R
B9: Fc-IL12(mutein 8) (Fc fusion)
chain: B3 chain with W258A, S418C, S641C
B10: Fc-IL12(mutein 11) (Fc fusion)
chain: B3 chain with E336A, K339A, K342A, K344A, S418C, S641C
B11: Fc-IL12(mutein 12) (Fc fusion)
chain: ESKYGPPCPPCPAPPVAGPSVFLFPPKPKDTLMISRTPEVTCVVVDVSQEDPEVQFNWYVDGVEVHNAKTKPREEQFNSTYRVVSVLTVLHQDWLNGKEYKCKVSNKGLPSSIEKTISKAKGQPREPQVYTLPPSQEEMTKNQVSLTCLVKGFYPSDIAVEWESNGQPENNYKTTPPVLDSDGSFFLYSRLTVDKSRWQEGNVFSCSVMHEALHNHYTQKSLSLSLGKGGGGSGGGGSGGGGSNGIWSTEILKNFKNKTFLKCEAPNYSGRFTCSWLVQRNMDLKFNIKSSSSSPDSRAVTCGMASLSAEKVTLDQRDYEKYSVSCQEDVTCPTAEETLPIELALEARQQNKYENYSTSFFIRDIIKPDPPKNLQMKPLKNSQVEVSWEYPDSWSTPHSYFSLKFFVRIQRKKEKMKETEEGCNQKGAFLVEKTSTEVQCKGGNVCVQAQDRYYNSSCSKWACVPCRVRSGGGGSGGGGSGGGGSRVIPVSGPARCLSQSRNLLKTTDDMVKTAREKLKHYSCTAEDIDHEDITRDQTSTLKTCLPLELHKNESCLATRETSSTTRGSCLPPQKTSLMMTLCLGSIYEDLKMYQTEFQAINAALQNHNHQQIILDKGMLVAIDELMQSLNHNGETLRQKPPVGEADPYRVKMKLCILLHAFSTRVVTINRVMGYLSSA
B12: IL12(mutein 13)-Fc (Fc fusion)
chain: NGIWSTEILKNFKNKTFLKCEAPNYSGRFTCSWLVQRNMDLKFNIKSSSSSPDSRAVTCGMASLSAEKVTLDQRDYEKYSVSCQEDVTCPTAEETLPIELALEARQQNKYENYSTSFFIRDIIKPDPPKNLQMKPLKNSQVEVSWEYPDSWSTPHSYFSLKFFVRIQRKKEKMKETEEGCNQKGAFLVEKTSTEVQCKGGNVCVQAQDRYYNSSCSKWACVPCRVRSGGGGSGGGGSGGGGSRVIPVSGPARCLSQSRNLLKTTDDMVKTAREKLKHYSCTAEDIDHEDITRDQTSTLKTCLPLELHKNESCLATRETSSTTRGSCLPPQKTSLMMTLCLGSIYEDLKMYQTEFQAINAALQNHNHQQIILDKGMLVAIDELMQSLNHNGETLRQKPPVGEADPYRVKMKLCILLHAFSTRVVTINRVMGYLSSAGGGGSGGGGSGGGGSESKYGPPCPPCPAPPVAGPSVFLFPPKPKDTLMISRTPEVTCVVVDVSQEDPEVQFNWYVDGVEVHNAKTKPREEQFNSTYRVVSVLTVLHQDWLNGKEYKCKVSNKGLPSSIEKTISKAKGQPREPQVYTLPPSQEEMTKNQVSLTCLVKGFYPSDIAVEWESNGQPENNYKTTPPVLDSDGSFFLYSRLTVDKSRWQEGNVFSCSVMHEALHNHYTQKSLSLSLGK

These binders were tested against T1, murine IL12 receptor complex (IL12Rβ1 and IL12Rβ2) (mouse, UniProt Q60837 20-738; P97378 24-874) (assay: cell-based or functional assay).
T1 sequence (Q60837 20-738, chain 1 of 2): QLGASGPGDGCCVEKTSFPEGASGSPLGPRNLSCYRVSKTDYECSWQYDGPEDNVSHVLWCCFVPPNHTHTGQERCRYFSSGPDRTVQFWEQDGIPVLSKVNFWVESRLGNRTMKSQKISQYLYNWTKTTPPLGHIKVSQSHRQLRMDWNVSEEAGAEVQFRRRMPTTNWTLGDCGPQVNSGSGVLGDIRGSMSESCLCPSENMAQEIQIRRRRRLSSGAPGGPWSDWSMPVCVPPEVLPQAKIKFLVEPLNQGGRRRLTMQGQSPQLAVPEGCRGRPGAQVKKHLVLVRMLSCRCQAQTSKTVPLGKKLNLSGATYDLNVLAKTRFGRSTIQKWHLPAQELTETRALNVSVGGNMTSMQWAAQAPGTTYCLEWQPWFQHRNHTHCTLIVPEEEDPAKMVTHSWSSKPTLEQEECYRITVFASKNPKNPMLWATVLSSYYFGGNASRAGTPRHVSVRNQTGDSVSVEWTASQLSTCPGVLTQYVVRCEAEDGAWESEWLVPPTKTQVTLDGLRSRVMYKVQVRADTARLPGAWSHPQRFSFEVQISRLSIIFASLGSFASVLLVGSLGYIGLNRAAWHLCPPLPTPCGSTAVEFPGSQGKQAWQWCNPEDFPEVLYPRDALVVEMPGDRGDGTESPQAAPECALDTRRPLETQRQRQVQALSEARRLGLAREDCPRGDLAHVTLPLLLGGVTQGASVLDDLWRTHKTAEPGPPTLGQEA
T1 sequence (P97378 24-874, chain 2 of 2): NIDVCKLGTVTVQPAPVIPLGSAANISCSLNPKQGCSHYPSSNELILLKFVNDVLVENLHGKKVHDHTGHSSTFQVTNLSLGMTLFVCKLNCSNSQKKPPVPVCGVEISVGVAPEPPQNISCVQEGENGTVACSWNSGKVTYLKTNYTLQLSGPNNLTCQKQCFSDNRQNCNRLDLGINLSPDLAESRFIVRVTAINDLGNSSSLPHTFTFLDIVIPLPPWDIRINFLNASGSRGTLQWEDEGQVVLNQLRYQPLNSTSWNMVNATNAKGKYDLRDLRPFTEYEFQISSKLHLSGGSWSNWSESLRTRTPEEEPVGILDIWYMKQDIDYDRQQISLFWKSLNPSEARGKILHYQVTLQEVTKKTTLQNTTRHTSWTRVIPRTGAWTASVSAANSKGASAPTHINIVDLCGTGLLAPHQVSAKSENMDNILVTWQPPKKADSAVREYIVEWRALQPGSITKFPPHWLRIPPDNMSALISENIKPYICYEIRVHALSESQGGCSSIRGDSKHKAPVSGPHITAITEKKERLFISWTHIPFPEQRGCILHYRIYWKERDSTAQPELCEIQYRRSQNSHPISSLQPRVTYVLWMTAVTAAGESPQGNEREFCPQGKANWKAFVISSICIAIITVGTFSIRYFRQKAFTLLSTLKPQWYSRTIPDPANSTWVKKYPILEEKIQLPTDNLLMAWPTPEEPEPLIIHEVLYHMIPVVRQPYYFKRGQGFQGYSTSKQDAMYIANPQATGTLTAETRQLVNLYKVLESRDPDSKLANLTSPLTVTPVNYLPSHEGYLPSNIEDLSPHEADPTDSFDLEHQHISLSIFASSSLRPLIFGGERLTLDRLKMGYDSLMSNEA

B1 and B2 are within 1.5-fold of each other in “EC50 (M); STAT3-Luc reporter, CTLL2/STAT3-Luc cells” value (shortened to “EC50 (M) … CTLL2/STAT3-Luc cells”): 1.16e-11 M for the first, 1.72e-11 M for the second.

Going from B3 to B4, the “EC50 (M) … CTLL2/STAT3-Luc cells” value rises from 1.8e-11 M to 6.47e-11 M (3.6-fold).

Compared with B1, B2 is lower in “Fold induction at 6.25 nM; STAT3-Luc reporter, CTLL2/STAT3-Luc cells” value: 7.52 fold for the first, 7.01 fold for the second.

First: B3
Second: B4
The “Fold induction at 6.25 nM; STAT3-Luc reporter, CTLL2/STAT3-Luc cells” value of the first is lower: 5.96 fold for the first, 9.58 fold for the second.

Going from B1 to B2, the “Max fold induction; STAT3-Luc reporter, CTLL2/STAT3-Luc cells” value (“Max fold induction … CTLL2/STAT3-Luc cells” below) falls from 15.4 fold to 8.48 fold.

Compared with B3, B4 is higher in “Max fold induction … CTLL2/STAT3-Luc cells” value: 7.83 fold for the first, 9.89 fold for the second.

Biological target: T1, murine IL12 receptor complex (IL12Rβ1 …)
Experiment: cell-based or functional assay
Remark: another data set of the same source

B5 and B7 are within 1.5-fold of each other in “EC50 (M) … CTLL2/STAT3-Luc cells” value: 1.76e-10 M for the first, 2.6e-10 M for the second.

First: B9
Second: B10
The “EC50 (M) … CTLL2/STAT3-Luc cells” value of the first is 1.7-fold lower: 8.05e-10 M for the first, 1.33e-09 M for the second.

Going from B5 to B6, the “Fold induction at 20 nM; STAT3-Luc reporter, CTLL2/STAT3-Luc cells” value falls from 4.52 fold to 1.12 fold.

Going from B7 to B8, the “Fold induction at 20 nM; STAT3-Luc reporter, CTLL2/STAT3-Luc cells” value falls from 5.41 fold to 1.06 fold.

Going from B9 to B10, the “Fold induction at 20 nM; STAT3-Luc reporter, CTLL2/STAT3-Luc cells” value falls from 10 fold to 8.93 fold.

Going from B11 to B12, the “Fold induction at 20 nM; STAT3-Luc reporter, CTLL2/STAT3-Luc cells” value rises from 1.04 fold to 1.37 fold.

Going from B5 to B6, the “Max fold induction … CTLL2/STAT3-Luc cells” value falls from 4.52 fold to 1.16 fold.

First: B7
Second: B8
The “Max fold induction … CTLL2/STAT3-Luc cells” value of the first is higher: 5.9 fold for the first, 1.11 fold for the second.

First: B9
Second: B10
The “Max fold induction … CTLL2/STAT3-Luc cells” value of the first is lower: 10.1 fold for the first, 10.2 fold for the second.

Compared with B11, B12 is higher in “Max fold induction … CTLL2/STAT3-Luc cells” value: 1.1 fold for the first, 27.5 fold for the second.
